A short description of the series: label from the status in PepcDB records.

The text below walks through data of a protein production outcome set (Wang et al. 2014).

With “MTQRTAFTLTVSPKIPARLSRLEELSNNLWYSWDRATRALFSRLDQQLWEAVGHSPKAFLRRVDESLLLQAAEDLTFLSHYNSVLSAYDSYHSEPSRYQAINGIEARDQVAYFCFEFGFHESLPVYSGGLGILAGDHCKAASDLCLPFVAVGLLYRQGYFFQTIDGQGNQQPVFCDSDFEDLPVKPALHDDGSEVRISVRFPGRVVTVKVWRAQIGHVGLYLLDTDLPDNSEYDRLITHQLYGGNKTMRIEQEIILGVGGVAALRAMGIKPTIWHSNEGHAAFMMLTRALELVRQGLDFASATEAVAVNTIFTTHTAVPAGHDHFPEDMMHRYFEDFYHELKISREEFMALGHTPGNHDFNMTALAIRMSRMHNGVSRIHRDVSANICHDMWPQIEPEENPIDYVTNGVHVPTFLAQEWTDLFDRRLGSQWRSKQHAPEFWSRIHDIPDHIFWSVRQSLKSQMFYGIRARLTEQNLRNHGSEAHLERLLRFVDPINPNILTLGFARRFATYKRATLLFQDLDWLRKLLLDAARPILLIFAGKAHPADLPGQALIRHIHQVADMPEFRGRILLVEGYDLRLARRLVSGVDVWLNNPIYPLEASGTSGMKAGINGTLNLSILDGWWGEGYDGKNGWGIKPVSENMEDSLRDAEESRAFYEILQDQVIPLYYDHSKFGYSADWVRMAKNSMVSLLPRYGTGRMVGEYVQKFYAPASRQGTGYSQDNFAIARSIAAWKARINAAWDGVSVRRLDTPGKQLEFGSTMHFKLAVKLNGLQPEDVVVELLLSRQYNKTRLSQFKHFRLECTGPLGSHEHQFELNHVPELCGRQQYYLRIYPYHPLLTHPLEMGKMVWLLEHHHHHH”, the protein production result was “failed”.
For the sequence “MTQSPYWQRIAAKAQAAQRPFFSLAPMEAVTGSVFRRVVMRAAAPDVFYTEFTNALSITHPKAKFTTRGRLYVDEAESPRPIVQLWGNSGEDFTKAAHEVKNQGYQAIDLNMGCPDMAVIKNHSGSDLIRHFDRAKEVIEGARQAELPVSVKTRLGFDDVHEYETWIPFLLQQQVPVLTVHVRTKMEMSKVPAHYELIDNLVQMRDTLAPATLLQINGDILDYQAGLKLAKAHPGVDGIMIGRGIFQNPYAFEPIPQPHSTRDMLELLRYQVDLYDQFIGLGLQGHFAPLQRFFKIYVRGMRHAAELRNELMQTKTTDDVRAIIDRLEAKLPAD”, the protein production entry is on record as “failed”.
The result for “MTRAPPRRCTSPMTPTAPSPLVWRDDGLPQSSLYGDVYFSSVDGLAETRAVFLAGCGLPERFAERRDFVVGELGFGSGLNIAALLDLWRREKPPGGRLHIFSIEAHPLSRDEAARILAHWPELGEAAQVLLDHWPGRARGFHRVDLPGFDAVLDLAVMDVVEALEAWDGLADAWFLDGFSPALNPAMWRDEVLAAVGARSAPGARAATFTVAGAVRRGLSAAGFEIAKRPGFGRKRERLEAWRPGVRPVAQRPETLAIIGGGIAGAALARAARAAGLEVTVIDDADAVAASGNPAALVTPALDAGGGPRAALYAQALSRAVTLYEAQPDAVLAREVLQLAAGERDPARFATVADQDLFEPGDMRTLEAEDTRARLETPTPALAMAGARVIAPAEVTAAWAGPVVRRRVAKAERDGEGWRLLDAAGEIIARADRLALAGGAAGADLLAEAPLRPVRGQASWTRGHGAPATAFGGYAIPTREGLLFGATHDRDDTQTNVRSEDHARNLATLAKGLPALAARLAGSTFEGRAAIRATTPDRLPLADLREDGVIVLTGLGSRGFCLAPLLAEHLVARLLDVPSPLPRQLSHLLKLTRFDSPVTRSRL” reads “failed”.
In the case of “MTRASLDKQPHEVASMFDDVAERYDLTNDLLSLGQDRVWRREVAKAVDARPAQKILDLAAGTATSSLPFARAGAYVVPCDFSLGMLRVGKKNHPWLPLTAGDATKLPFKDDTFDAVTISFGLRNVQDTDTALSELYRVTKPGGRVVICEFSHPTWAPFRTVYTEYLMRALPPVARAVSSNPDAYVYLAESIRAWPTQPELAERLRKAGWSKVAWRNLTGGVVALHRGFKAV” it was “failed”.
In the case of “MTREMARLLISPSNAWPRLRQDYDHHPFAFLVPLLLLPLLPAACLFIGTTQVGWSLPGNDSVQHLSSGSALLLATMCYLGFVAGVVIMGLFVRWVLFRTPSRPSVPGSLTFTTAIAVPLMLAGIVALVPWRILLLLAAAAACAYSVRLLFTGLPLFMRMQERQTLFYAFCILGVGFLTLLTTAFIFIELWGQSLAGSGEYLR” it was “failed”; in that of “MTRFWTRLIVVLTVILGVNYVAWRWMASLNWEAWWIAVPLVIAETYSLIDVMLFGLTVWNIKFRKPPPPPPADATVDVFITTYNEPLDLVMTTALAAKEIRWPHSTWILDDGDRPEMRELAESNGIGYVTRGADWTPDMPRHAKAGNLNNALMLTSGEYLLILDADQIPEPDILDKTLGYFNDDKVALVQTPQYFINVPADDPLGSQAPLFYGPIQQGKDGWNAAFFCGSNAILRREALMQLGLVGYVKATEKSVRRALAASRTAIRKARRSPEAENPLVEQMLNEVEAATESAQKELEAGASLSEITYRVRRQVDDAVRTLVAADFSALQSDLEEIAAMELAHVGESGVTTVATDAVDRMSGRDWSPLGALESVHAVLDAISVERTDEAQPIMPLATISVTEDMATAMRLHGLGWKSVYHHEILANGLAPEDVKTMLTQRLRWAQGTMQVLLRENPLVQRRLTWGQRLMYFSTMWTYLSGFAAVVYFAAPIIYLTLGILPVNSISSDFFIRFIPFMVVNQLLFLVAGHGIPTWRGQQYSLALFPTWIKACTTAARNVWFGRPLGFAVTPKARQSGGPSWSLIRPQIIVAVLLAVALIVGLIRLLAGMSEPLGTLVNVAWVAFDLVVLSVLVKAVLYKGFVPEVVGPERPEERNADAV”, “failed”; in that of “MTRLRGTLSVCIDAFPAWTRPLALAFVVYALSFGMRMLEYPAWQNPEYMLDGEYLLATHDAYHWIAGAEGFEFGAGHPMSELVRLAAAFTGTTPAAVGFWLPPVMASLVAVGVFGWAAALGGVEAGVCAGVLASLAPGFLARTLLGYCDTDLVTLLFPLLMGLGPAFWMARFMFTPLQVARRLLARRTGTSDVVPDAVAVMMTSRGEADDDWHGGALSPRWLALLAGSGLVGSWGAEWHSLFPYLIRYDVVLLFGCICVFGRPGMRRALLVGGLAYALPMLVGAWGLLFALALGWGLHRADARFMAFVRGRALPVAGWCAVAVLLFDPDVFRMFLNSIAGYVKRSGDPSPGAGGDDPLVYPSVAQSIIEVQDLSLSEVLSYFHPWLWVALAGLGGFVPLLLARPAAFFLLPLGVLSFLSVKLGGRMVMFGAPVLALGFALPMVWGVQRVLRHDLRTGWVRLALSAVLLVIVATPFVDLLPAMTQGPIINKRHAEALRHIRTATPEDSMVWIWWDWGYSAHHFAHRRTIADGASHGGPSLYVPAAVFSTANPRFAWQLIRYTAERGGIPGSVFEGMGGAQAQELVHRLGIEKMTFADAPRQYLVVSYDMLRLGFWITNFGTWDFLSREGKGYAISSIPQQLSYSLDTGEVQVQGNTTGVLASTIDVFDEGQLERRDYIVRQGGSGNAIADYAARQRNIESRRNIHFLFNKVTGEKLVLDDRLYNTVMVQLLLCSPDDTRFAPYFKLIYDNVYARVYEVR”, “failed”.
Take “MTRNGHERAKPLRPGDPTELGAYRIVGRLGRGGMGTVYLGKDTAERLVAIKLIRPDLSEDPAFRQRFAREVAAARRVARFSTAAVLDAQLEGDPLFIVSEYVAGPNLAEAIQADGPMYGGTLESLAMGVAAALTAIHGAGVIHRDLKPANVLLSSVGPKVIDFGIARALDDDTAVTRSSQLMGTPAYLAPELIAGEPPTPMSDIFSWGCLVAYAGTGRAPFDAPTVPAVLHQIVAGQPNLSGLDPALRELVESALDKFPDNRPTAQQLLSRLVGQEEMSLDAVHETVVRSWTPPATSRPEAVPSGPNPAAVPAQVGAAAAAPPTQPGTTPPGGQPSATPSAGHPGATPPAGQPAAAPPFPEHSPQTPPWAAPTPPGGNGTEQKTRGTRFSPAIAIAGGSAVALLAGAVIGGLVLFRSPEVPEGMQVYADDFTHQDGWAGYDFDPENTFSWSGYYQGGYALSADGDTRTSTVSVAPPAGLPEQVRVSATTQVVSGPDYGTYGLHCFYNDDGDNVTYYSATVRVDGSAAQIRRHGGEQGSTHLEEVTAKPVSGFLTPSRDAEEAPVNTFDFTCELDPEADTVTLNLWLNGEHVLEAVDTNPLPYDGEDAPQAGMLAGRGIGGGDNIVVVFDDFAVYQLDGGQRERS”: the protein production result is on record as “failed”.
For “MTRPEASGPPDATRLGHLLGPHGVQGGIKLYVLGDPAQVLALKRVYVESRGWLSLRRAEGMPPNLVLYLAGVSSREGAEELRGLQVYATDAELPDLEEGTFYYHDLRGLEVYGAGGERLGTVSDVMDAGHQDLLVVDYGGGTSFVPLQAPYVEVPLAGGKPGAVHLTADAPAGLIGPEPGEEDGAAESLEHHHHHH”, the protein production result was “not failed”.
